The results in this text go back to US20160185837A1 (Medimmune Limited, priority 2013, published 2016).

T1: human GIP receptor (hGIPr) (Homo sapiens, UniProt P48546)
T1 construct: expressed in transfected cells
T1 sequence (P48546 22-466): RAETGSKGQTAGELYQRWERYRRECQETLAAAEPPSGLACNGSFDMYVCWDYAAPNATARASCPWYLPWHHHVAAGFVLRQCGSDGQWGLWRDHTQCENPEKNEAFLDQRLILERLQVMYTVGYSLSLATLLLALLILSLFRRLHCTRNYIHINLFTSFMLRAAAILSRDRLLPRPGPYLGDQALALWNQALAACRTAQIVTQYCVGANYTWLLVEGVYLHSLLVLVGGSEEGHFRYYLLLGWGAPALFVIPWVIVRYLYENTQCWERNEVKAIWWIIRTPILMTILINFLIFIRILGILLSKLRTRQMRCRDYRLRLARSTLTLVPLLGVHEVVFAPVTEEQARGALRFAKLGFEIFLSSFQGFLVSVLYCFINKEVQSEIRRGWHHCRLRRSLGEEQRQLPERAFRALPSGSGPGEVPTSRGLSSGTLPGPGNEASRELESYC

B1: IP197 (protein)
chain: YSEGTFTSDVSSYMERQAIDEFIAWLLAGAAAGGSGSTASSGSGSATGGGGAATHTCPPCPAPEF
modifications: /note=“Description of Artificial Sequence Synthetic Peptide-linker-hinge polypeptide”
B2: IP173: isolated polypeptide named in b21; sequence stands in a table not shown here (protein)
chain: B1 chain with M14L, R16E, I19A, D20K
modifications: /note=“Description of Artificial Sequence Synthetic Peptide-linker-hinge polypeptide”
B3: IP230 (protein)
chain: B1 chain with Y1H, S2G, M14L, R16G, I19A, D20K, L27V, A28K
modifications: /note=“Description of Artificial Sequence Synthetic Peptide-linker-hinge polypeptide”
B4: IP208: isolated polypeptide named in b21; sequence stands in a table not shown here (protein)
chain: B1 chain with M14L, R16G, I19A, D20K
modifications: /note=“Description of Artificial Sequence Synthetic Peptide-linker-hinge polypeptide”
B5: IP171: Fc fusion, IgG1-TM, SEQ ID NO:142; agonist peptide YSEGTFTSDVSSYMERQAISEFIAWLLAG (protein)
chain: B1 chain with D20S
modifications: also: Fc fusion, IgG1-TM
notes: agonist peptide YSEGTFTSDVSSYMERQAISEFIAWLLAG
B6: IP150: isolated polypeptide named in b21; sequence stands in a table not shown here (protein)
chain: YSEGTFTSDVSSYLEGQAAKEFIAWLVAGGAPPGGSGSTASSGSGSATGGGGAATHTCPPCPAPEF
modifications: /note=“Description of Artificial Sequence Synthetic Peptide-linker-hinge polypeptide”
B7: IP174: isolated polypeptide named in b21; sequence stands in a table not shown here (protein)
chain: B6 chain with Y1H, S2G, G16E, Q17E, P32A, P33A
modifications: /note=“Description of Artificial Sequence Synthetic Peptide-linker-hinge polypeptide”
B8: IP176: Fc fusion, IgG1-TM, SEQ ID NO:143; agonist peptide YSEGTFTSDVSSYMERQAISEFIAWLLKGP (protein)
chain: YSEGTFTSDVSSYMERQAISEFIAWLLKGPAAAGGSGSTASSGSGSATGGGGAATHTCPPCPAPEF
modifications: also: Fc fusion, IgG1-TM
notes: agonist peptide YSEGTFTSDVSSYMERQAISEFIAWLLKGP
B9: IP224 (protein)
chain: B8 chain with S20D, K28G, P30G
modifications: /note=“Description of Artificial Sequence Synthetic Peptide-linker-hinge polypeptide”
B10: IP204: isolated polypeptide named in b21; sequence stands in a table not shown here (protein)
chain: HGEGTFISDYSIAMDKIHQQDFVNWLLAQKAAAGGSGSTASSGSGSATGGGGAATHTCPPCPAPEF
modifications: /note=“Description of Artificial Sequence Synthetic Peptide-linker-hinge polypeptide”
B11: IP187 (protein)
chain: HGEGTFTSDVSSYLEGQAAKEFIAWLVKGAPPGGGGGSGGGGSGGGGSGGGGSATHTCPPCPAPEF
modifications: /note=“Description of Artificial Sequence Synthetic Peptide-linker-hinge polypeptide”
B12: IP132 (protein)
chain: HGEGTFTSDVSSYLEGQAAKEFIAWLVKGGGGGGSGGGGSGGGGSGGGGSATHTCPPCPAPEF
modifications: /note=“Description of Artificial Sequence Synthetic Peptide-linker-hinge polypeptide”
B13: IP233 (protein)
chain: B1 chain with Y1H, S2G, M14L, R16E, I19A, D20K, L27V, A28K
modifications: /note=“Description of Artificial Sequence Synthetic Peptide-linker-hinge polypeptide”
B14: IP199: isolated polypeptide named in b21; sequence stands in a table not shown here (protein)
chain: B1 chain with Y1H, S2G, M14L, R16G, I19A, D20K
modifications: /note=“Description of Artificial Sequence Synthetic Peptide-linker-hinge polypeptide”
B15: IP227 (protein)
chain: B8 chain with S20D, I23V, A24N, W25D, P30G
modifications: /note=“Description of Artificial Sequence Synthetic Peptide-linker-hinge polypeptide”
B16: IP191 (protein)
chain: HGEGTFTSDVSSYLEGQAAKEFIAWLVKGAAAGGSGSTASSGSGSATGGGGAATYTCPPCPAPEF
modifications: /note=“Description of Artificial Sequence Synthetic Peptide-linker-hinge polypeptide”
B17: IP192 (protein)
chain: B16 chain with Y55S
modifications: /note=“Description of Artificial Sequence Synthetic Peptide-linker-hinge polypeptide”
B18: IP194 (protein)
chain: HGEGTFTSDVSSYLEGQAAKEFIAWLVKGAAAGGSGSTASSGSGSATGGGGPPCPPCPAPEF
modifications: /note=“Description of Artificial Sequence Synthetic Peptide-linker-hinge polypeptide”
B19: IP195 (protein)
chain: HGEGTFTSDVSSYLEGQAAKEFIAWLVKGAAAGGSGSTASSGSGSATGGGGESKYGPPCPPCPAPEF
modifications: /note=“Description of Artificial Sequence Synthetic Peptide-linker-hinge polypeptide”

Positions count from the first letter of the chain named. Where only a bound is given, the exact number is not on record here.

The target in the first test is T1, human GIP receptor (hGIPr). The test is described as follows: BSA-cAMP assay, cells expressing human GIP receptor. It counts as cell-based. To be noted: BSA-cAMP assay; batch 1 unless a batch is given; read-out: cAMP activity hGIPr (EC50). How it is done: For human GIPr, two different lines were used, shown as “hGIPr” and “hGIPr (C3)” in Table 11.
(§1) One basic cAMP assays was performed, differing in the medium used for the assay, the “BSA-cAMP assay”:
(§2) BSA-based assay medium: 0.1% bovine serum albumin (BSA) in
(§3) In certain aspects, the assay can also be carried out in medium supplemented with serum albumin that corresponds to the receptor being tested, e.g., human serum albumin for testing cAMP activity at hGIPr or hGLP-1r, rat serum albumin for testing cAMP activity at rGIPr or rGLP-1r, and so on. […] All sample dilutions were made in duplicate.
(§4) A frozen cryo-vial of cells expressing the receptor of interest was thawed rapidly in a water-bath, transferred to pre-warmed assay media and spun at 240×g for 5 minutes. Cells were re-suspended in assay buffer at an optimized concentration (e.g., hGLP-1r and hGIPr cells at 0.5×10^5 cells/ml).
(§5) To this, 5 μL cell suspension was added and the plates incubated at room temperature for 30 minutes.
(§6) cAMP levels were measured using a commercially available cAMP dynamic 2 HTRF kit (Cisbio, Cat #62AM4PEJ), following the two step protocol as per manufacturer's recommendations. In brief; anti-cAMP cryptate (donor fluorophore) and cAMP-d2 (acceptor fluorophore) were made up separately by diluting each 1/20 in conjugate & lysis buffer provided in the kit. 5 μL anti-cAMP cryptate was added to all wells of the assay plate, and 5 μL cAMP-d2 added to all wells except non-specific binding (NSB) wells, to which conjugate and lysis buffer was added. […] Data was transformed to % Delta F as described in manufacturer's guidelines and then transformed to percent activation of maximal native agonist response and analysed by 4-parameter logistic fit to determine EC50 values.
(§7) We used unconstrained 4 parameter logistic fit of data, curve mid-point to determine EC50. This was tested on two occasions, not two batches.
B1: the EC50 came out at 0.18 nM.

As to B2, the EC50 worked out at 1.2 nM. The same measure, in the same setting: to B3 belongs above 15000 nM; to B4, 17 nM; to B5, 0.39 nM. With B6, the EC50 is 16 nM. The same measure, in the same setting: the result for B7 reads 460 nM; that for B8, 0.42 nM. Same read-out and setting: the result for B9 reads 0.35 nM; that for B10, 0.12 nM. The same measure, in the same setting: the result for B11 reads 540 nM; that for B12, 81 nM.

For a further test, the target named is T2, human GLP-1 receptor (hGLP-1r) (Homo sapiens, UniProt P43220).
T2 construct: expressed in transfected cells
T2 sequence (P43220 24-463): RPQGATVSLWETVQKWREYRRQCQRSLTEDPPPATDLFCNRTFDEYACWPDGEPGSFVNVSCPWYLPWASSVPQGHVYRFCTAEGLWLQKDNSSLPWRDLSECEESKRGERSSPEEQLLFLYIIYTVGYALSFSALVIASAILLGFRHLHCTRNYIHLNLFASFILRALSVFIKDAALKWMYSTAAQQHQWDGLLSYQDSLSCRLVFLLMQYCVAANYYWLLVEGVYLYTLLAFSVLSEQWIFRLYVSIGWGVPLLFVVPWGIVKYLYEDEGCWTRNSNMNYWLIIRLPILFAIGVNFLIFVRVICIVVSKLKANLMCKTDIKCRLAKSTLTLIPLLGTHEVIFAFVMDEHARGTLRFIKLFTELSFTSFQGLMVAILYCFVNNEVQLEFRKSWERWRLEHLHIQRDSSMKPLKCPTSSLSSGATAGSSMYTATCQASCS
The test is described as follows: BSA-cAMP assay, cells expressing human GLP-1 receptor. Conditions: BSA-cAMP assay; batch 1 unless a batch is given; read-out: cAMP activity hGLP1r (EC50). It counts as cell-based. How it is done: as §1, §2, §3, §4, §5, §6, §7
Background: Changes in cAMP serve as a functional read-out for many G protein-coupled receptors.
For the molecule B1, the EC50 amounted to 0.78 nM. Still for that read-out and setting: the result for B2 reads 0.23 nM.

B3: the EC50 came to 0.056 nM. On the same count and under the same terms, to B13 belongs 0.036 nM.

Regarding B4, the EC50 worked out at 1.6 nM. Still for that read-out and setting: the result for B14 reads 0.069 nM; that for B5, 0.53 nM; that for B6, 0.033 nM.

As to B7, the EC50 came out at 0.032 nM. As for B15, the EC50 came out at 48 nM. Still for that read-out and setting: the result for B8 reads 0.6 nM; that for B9, 0.57 nM. The same measure, in the same setting: to B16 belongs 0.057 nM; to B17, 0.043 nM; to B18, 0.061 nM. Still for that read-out and setting: to B10 belongs 850 nM; to B19, 0.061 nM. On to B11, for which the EC50 amounted to 0.037 nM. The same measure, in the same setting: the result for B12 reads 0.04 nM.

Broadly, the EC50 is the midpoint of the concentration-response curve.
